{
  "source": "patent US20140289906A1",
  "about": "“Compositions Having Dicamba Decarboxylase Activity and Methods of Use” (priority 2013, published 2014)",
  "molecules": {"B1": {"name": "55 (protein, listed as Serratia sp.)", "chain": "MAKIICLEEHTLDKALVMASMPAALEQAPFLSDWGKTVTDGNLPDRSRPQIEKNDLINIKGADIGRGRLDDMDVAGITMQVLSVGGFPHLISAAEGVDLNRAANDRLADAVNAHPDRFAAFATLPWAQPDSAEKELERAVKELGFKGALLNGRPSTHFLDHPDYDGLLARFNALGVPLYLHPGLPVRSVQQAYYGGFSDEVTARLSMFGWGWHHEAGIHLLRLILSGAFDKYPNLQVISGHWGEMLPFWLQRLDDSLPQAATGLRRTIAQTFKEQVYVTPSGMLTLPHFQFIYALLGAERIIFSVDYPYQTLDGVKAFIQSLPVPEEAKEAIAFRNAERLLGLTS"}, "B2": {"name": "56 (protein)", "chain": "MAKIICLEEHYLDSELGRACMPVALEQAPFLGDWGKTVADGHNPDRSRPQIEKNALINAKGADLGSRRLRDMDEAGITLQILSVGGFPQLAPEDEAVTLNTAANDRLAEAVRNHPDRFAAFATLPWAQPKDAENELVRAVEKLGFKGALLNGRPSSCFLDHPDYDSLLSRFNKLNVPLYLHPGLPLKSVQQAYFTGFSAEVNARLSMFGWGWHHEAGIHLLRLMLSGAFDKYPNMQVISGHWGEMLPFWLQRLDDSLPLAATGLSRTLTRTFQEHVYVTPSGMLTLPHFKFIYELMGAERILFSVDYPYQTLDGVKTFIDSLPVNKAEKEAIAFRNAERLLGITA", "modifications": "Enterobacter aerogenes"}, "B3": {"name": "57 (protein)", "chain": "MAKLICVEEHVLDPAVGAATQSLVRAEAPYLPDWGSRVLDGRHVADRSRPHVIAPSESARKALEMGEPRLADMDAASIDMQVLSYGGFPQLLPAAQAIDLNRAANDKLALAAQAHPARFAGFATLPWQAPEAAARELERAVKQLGLKGALINGRPGDTFLDDARYAPILAAFDELKVPLYVHPGLPLPAVQAPYYGGFERELSARLAMFAWGWHNEAGIQVVRMLLAGVFDRHPRLQLISGHWGEMVPFFLQRLEDSIPQEASGLQRPIVQTYREHVYISPSGMFTLPHFQFIHALMGAQRILYSIDYPYQSLDGARAFIERLPISDTDKALIAHRNAERLLHL", "modifications": "Collimonas fungivorans"}, "B4": {"name": "58 (protein)", "chain": "MARVIALEEHYATTEFLRGPGTWLASRPGIVEPAGDLGDGRIAAMDQAGVDLAVLSLAAPGVEQLDPDDAVRLARDCNDQLAAAVRRYPDRLAGFATVPTSAPDRAADELERAVRGLGFPGAVINGHSRGRYLDDPFFEPVLARAAELQAPIYLHPTIPPAGVIESSYAGFAEPVTFALATVGWGWHINTATHALRMILGGVFDRHPSLQMIIGHMGEATSFMLPRFDATLKPELTGLNHPVSSYLRENFHYTFANFNDHATYANLVAQVGIERVAFSADYPFGSMVDARAFLDGLPLSDDERAAISHRNAEKLLGL", "modifications": "Mycobacterium colombiense"}, "B5": {"name": "79 (protein)", "chain": "MATTTTPSTLIATLESHLTPTLAFTSPTTSPTQPALHLIPPTTLTKLRNLGPGRVKDMHMLGHSRQIISHIPVAAPPQICSRFNDAIHAATMTNTAKFSVLAVLPTDGMEAAKELARCVSKYRFVGGVIGLNRGLRINGEGWEELWGLAERLRIPIMFREMWPLAFEIVDYQHHLPYSALGPILTQLHTSHTSSPLPLVRLYLSSVFDHYPSLRLVLAHPGSLPSLVPRIESLINSIPATDKPKRSFLDVWQHNIYLTTADAQDMSSLRALLEQIPVDRVLYASNYPFEERGNELMNELRESEFLTNIEWERVAWVNAETLFNLKEAGTKEARQLTTIPSSRS", "modifications": "Pyrenophora teres"}, "B6": {"name": "81 (protein, listed as Verticillium dahliae)", "chain": "MAASTKPKVVDIHTHMYPPSYIDILTSRTAIPVVRTFPQAADPRLILLDAEQQALDAALQDPTAKPPGRPLTSHYASLDQKIHFMDTHSIDISVVSLANPWLDFIEPKEAAATARSVNDEFEAMCASQPGRLFFFAALPLTAPLPALLEAVRHVAELEHCRGVILGTSGLGSGLDDPELVPVLEAVAAAALTVFLHPHYGLPNDVWGPRASAEYGHVLPLALGFPMETTIAVARMYLAGVFDRVPALRMLLAHSGGTLPFLAGRIESCILHDGQLVAEGKVGAARRTIWDVLREQVYLDAVIYSEIGLKAAIAASGGADRLMFGTDHPFFPPLGTDEQAKKESRINAGGSRPMITGNAMINGHGGLCNHITQSDYQDVVL"}, "B7": {"name": "87 (protein, listed as Novosphingobium sp.)", "chain": "MASDIATAADLQTGGRQGYLRIATEEAFATRDQIDVYLRMVRDGTADRGMTSLWGFYAQSPSARATQIIERLLDLGEQRLADMDAAGIDKAVLALTSPGVQPLLDMEEARRIAGNANDRLAERCAAHPDRFIGMTAVAPQDPQWSAREILRGATQLGFKGVQINSHTQGRYLDEPFFDPIFRALGDVGQPLYIHPGTPPDSMIGPLLDAGLDGAIYGFGVETGMHLLRLITAGIFDRYPDLQIMVGHMGEALPYWLYRLDYMHQAGIRSQRYERMRPLKRTIAGYFRSNVLVTCSGMAWEPAIQFARQVMGEDRVMYAMDYPYQYEADEVRALDVMDLSPESKRKFFQTNAERWFDL"}, "B8": {"name": "88 (protein, listed as Starkeya novella)", "chain": "MARKIALEEHFTTPELAGKYVARPTQSDALFADIERRLADFDELRLEMMDRAEIDLMVLSVTTPGVQGVRDTGEAIRLARGANDFLAREVQKRPSRYAGFAHLAMQDAEAAATELERAVRELGFRGALINGQTNGHYLDEDQYAPFWERVQELDVPVYLHPGNMADSPAMFAHRPELGGPIWAWTAETAAHALRLVFGGTFTRFPGAKVILGHMGETLPFLLWRLDSRREFDLGEKLAPDALPSAIIKRNIAVTTSGVCDPAPLVAALQALSDDNVMFSVDYPYEDPQLASKFIETAPIGEETRAKVCHGNAERLLGL"}, "B9": {"name": "89 (protein, listed as Erwinia billingiae)", "chain": "MATNRRDFLKNATAVMAGSTVFAGSSHFASAAAVEPAAVQPPRRIIALEEHFMLPEFVGYLHETQQNLRNGLVDKVVTPLSDFGKGRLEIMDKNGVDFAVLSLSGPGVQAEPDRVKAVRLARYANDKLATEMQKNPRRYGGFAHLAMQDPLAAANELERCVKQLHMQGGMINGETDGLYLDDRRYDVFWERVEALNVPIYIHPGNPPDYPHMFAGHPEMWGPVWSWAVETCSHALRLIFSGTFDRYPGARVILGHMGETLPIQLWRLDSRYQIANQTFAIKHPPSWYAKKNITITTSGVCNDAALRCALDSMGSENVMFSIDYPFESTEIAVNWLKTANITEQERNAVAWGNATSILRLGA"}, "B10": {"name": "92 (protein, listed as Chitinophaga pinensis)", "chain": "MARIVTLEEHVSFPEMTALLPEEILKNRKQSGAALQMQEKLADITGERLTSMKAAGISMQVLSVENTDVYLLPDSLAPAFAAKYNDLLADKISSHSDAFAAFAMLPMTVPEAAADELERAVKTHGFCGAMIKGLINGVFLDAPKFAPVFACAEKLGVPLYIHPGIPPKEVIDAYYSNVGDTKGPNEAIACYGWGWHSETAIHILRLLAAGIFDKYPQLNIIIGHMGEMLPMMWERSNRVFQPGNNGKNQRTLIETFRKQLYITTSGIFTQPPLQIAIDTIGIDNILFSIDYPFSSNQMGIDFLTKAALPAEQLAKMAHGNADRILKF"}, "B11": {"name": "4 (protein, listed as Lactobacillus buchneri)", "chain": "MAKVITLEEHFSSQKLGQKMAEVLPKRPIGNVSPKMQDYMQRSLPPEAELEDVTGSRIQWMDQHQISMQILSYGNQNPQNSDPKFAVELTKLANDELAKAVAKAPDRFRAFASLPVSHPTDAAAELKRGVEELGFKGAMLVRPTSQAHPFFDDPFYLPIFEAAANLNVPVYLHPSFPDSQIIDYYYSNGPWDDKVSGILGTAGYGWHTDVGIQTVRLLLSGVFEKYPNLKLISGHWGEFASFALERMDQVMYPETNLSEPISKIYRDHVYVTPSGILTEPQLKFVKDEVGIEHLLYSIDYPYIKPENSGSFIESSPLTDEEKELFAHGNAEKLLQL"}, "B12": {"name": "5 (protein, listed as Staphylococcus aureus)", "chain": "MAQNNMEANQMKSITFEEHYVIEDIQKETMNAISADPKGVPMKVMLEGLEKKTGFTNADELSHHDERIQFMNNQDVQIQVLSYGNGSPSNLVGQKAIELCQKANDQLANYIAQYPNRFVGFATLPINEPEAAAREFERCINDLGFKGALIMGRAQDGFLDQDKYDIIFKTAENLGVPIYLHPAPVNSDIYQSYYKGNYPEVTAATFACFGYGWHIDVGIHAIHLVLSGIFDRYPKLNMIIGHWGEFIPFFLERMDEALFAEHLNHPVSYYFKNNFYITPSGMLTKPQFDLVKKEAGIDRILYAADYPYIEPEKLGVFLDELGLTDEEKEKISYTNGAKLLGLSSNN"}, "B13": {"name": "16 (protein, listed as Staphylococcus aureus)", "chain": "B12 chain with A131T"}},
  "test": "14C assay: 14CO2 capture from [14C]-carboxyl-labeled dicamba with IPTG-induced recombinant E. coli cells",
  "conditions": "for Dicamba Decarboxylase Activity: IPTG-induced recombinant E. coli cells, 14CO2 from [14C]-carboxyl-labeled dicamba; for decarboxylation activity of dicamba: among the 108 sequences tested, recombinant E. coli cell assay; for Enzymatic Detection level: dicamba decarboxylation activity",
  "note": "Where a chain is given by its changes, count along the chain named.",
  "data": [
    {"molecule": "B1", "values": [
      {"measurement": "Dicamba Decarboxylase Activity", "result": "High"},
      {"measurement": "decarboxylation activity of dicamba", "result": "showed decarboxylation activity of dicamba"},
      {"measurement": "Enzymatic Detection level", "result": "High"}
    ]},
    {"molecule": "B2", "values": [
      {"measurement": "Dicamba Decarboxylase Activity", "result": "High"},
      {"measurement": "decarboxylation activity of dicamba", "result": "showed decarboxylation activity of dicamba"},
      {"measurement": "Enzymatic Detection level", "result": "High"}
    ]},
    {"molecule": "B3", "values": [
      {"measurement": "Dicamba Decarboxylase Activity", "result": "High"},
      {"measurement": "decarboxylation activity of dicamba", "result": "showed decarboxylation activity of dicamba"},
      {"measurement": "Enzymatic Detection level", "result": "High"}
    ]},
    {"molecule": "B4", "values": [
      {"measurement": "Dicamba Decarboxylase Activity", "result": "High"},
      {"measurement": "decarboxylation activity of dicamba", "result": "showed decarboxylation activity of dicamba"},
      {"measurement": "Enzymatic Detection level", "result": "High"}
    ]},
    {"molecule": "B5", "values": [
      {"measurement": "Dicamba Decarboxylase Activity", "result": "High"},
      {"measurement": "decarboxylation activity of dicamba", "result": "showed decarboxylation activity of dicamba"},
      {"measurement": "Enzymatic Detection level", "result": "High"}
    ]},
    {"molecule": "B6", "values": [
      {"measurement": "Dicamba Decarboxylase Activity", "result": "High"},
      {"measurement": "decarboxylation activity of dicamba", "result": "showed decarboxylation activity of dicamba"},
      {"measurement": "Enzymatic Detection level", "result": "High"}
    ]},
    {"molecule": "B7", "values": [
      {"measurement": "Dicamba Decarboxylase Activity", "result": "High"},
      {"measurement": "decarboxylation activity of dicamba", "result": "showed decarboxylation activity of dicamba"},
      {"measurement": "Enzymatic Detection level", "result": "High"}
    ]},
    {"molecule": "B8", "values": [
      {"measurement": "Dicamba Decarboxylase Activity", "result": "High"},
      {"measurement": "decarboxylation activity of dicamba", "result": "showed decarboxylation activity of dicamba"},
      {"measurement": "Enzymatic Detection level", "result": "High"}
    ]},
    {"molecule": "B9", "values": [
      {"measurement": "Dicamba Decarboxylase Activity", "result": "High"},
      {"measurement": "decarboxylation activity of dicamba", "result": "showed decarboxylation activity of dicamba"},
      {"measurement": "Enzymatic Detection level", "result": "High"}
    ]},
    {"molecule": "B10", "values": [
      {"measurement": "Dicamba Decarboxylase Activity", "result": "Yes"},
      {"measurement": "decarboxylation activity of dicamba", "result": "showed decarboxylation activity of dicamba"},
      {"measurement": "Enzymatic Detection level", "result": "High"}
    ]},
    {"molecule": "B11", "values": [
      {"measurement": "Dicamba Decarboxylase Activity", "result": "High"},
      {"measurement": "decarboxylation activity of dicamba", "result": "showed decarboxylation activity of dicamba"},
      {"measurement": "Enzymatic Detection level", "result": "High"}
    ]},
    {"molecule": "B12", "values": [
      {"measurement": "Dicamba Decarboxylase Activity", "result": "High"},
      {"measurement": "decarboxylation activity of dicamba", "result": "showed decarboxylation activity of dicamba"},
      {"measurement": "Enzymatic Detection level", "result": "High"}
    ]},
    {"molecule": "B13", "values": [
      {"measurement": "Dicamba Decarboxylase Activity", "result": "High"},
      {"measurement": "decarboxylation activity of dicamba", "result": "showed decarboxylation activity of dicamba"},
      {"measurement": "Enzymatic Detection level", "result": "High"}
    ]}
  ]
}
